Measured values as given in patent US9969998B2, “Compositions of adenosine deaminase-2 (ADA2), variants thereof and methods of using same” (Halozyme, Inc., priority 2014, dated 2018).
Where a chain is given by its changes, count along the chain named. Names and notes keep the numbering of the source. Values joined by “and” are separate entries in the source; they are usually repeats but may differ in a detail not shown here. Equal values may be shown once. “Also recorded” adds a separate entry of the source.

Columns and labels:
[1] = 24 hours, 37° C.
[2] = Daddona and Kelley (1981); cited from earlier work
[3] = tested on: mixture of NK and T (NK/T) cells; assay: T-cell or NK/T cell proliferation assay in the presence of adenosine; assay type: cell-based
Source text: Reversal of adenosine-mediated immunosuppression by any ADA2 provided herein, including wildtype and variants, conjugates and other modified forms thereof, and combination therapy using any ADA2 provided herein and other agents, can be examined in vitro, for example, by performing proliferation assays. Such assays include, but are not limited to T-cell proliferation assays or a mixture of NK and T (NK/T) cell proliferation assays, in the presence of adenosine and/or any ADA2 provided herein and/or any other combination therapy agents. For example, the immunosuppressive effect of adenosine on various immune cells, such as lymphocytes, natural killer (NK) cells, polymorphonuclear granulocytes, and phagocytic cells such as tissue macrophages, can be assessed by proliferation assays using the immune cells or mixtures thereof, such as the mixture of NK and T (NK/T) cells prepared from peripheral blood mononuclear cells (PBMC). The effect of any ADA2 provided herein and any other combination therapy agents provided herein, can be assessed by comparing the results of such proliferation assays in the presence of adenosine, with or without the addition of any ADA2 provided herein and/or any other combination therapy agents provided herein, including immune checkpoint inhibitors. Combination therapy agents are described in Section H.4 below. […]

[4] = tested on: adenosine in tumor extracellular matrix; assay: Adenosine in MH194+PSC4 tumor extracellular matrix (microdialysis, LC/MS); assay type: in vivo, mice; conditions: for Adenosine concentration in ECM, Mean: n = 8; for Adenosine concentration in ECM, individual tumors: single animal values; for adenosine concentration in tumor ECM: 0.03 mg/kg
Procedure: To assess the effects of PEGADA2 on adenosine in tumor extracellular matrix, mice bearing peritibial MH194+PSC4 tumors received vehicle, the polypeptide whose sequence is set forth in SEQ ID NO:20, which contains the amino acid replacement K374D (Zavialov numbering; K371D mature numbering), at 0.03 mg/kg, or the polypeptide whose sequence is set forth in SEQ ID NO: 273, which contains the amino acid replacements R222Q/S265N (Zavialov numbering; R219Q/S262 mature numbering), at 0.03 mg/kg, 24 or 48 hours prior to microdialysis. Each of the polypeptides were PEGylated as described above in Examples 8 and 22). The mice were anesthetized using isofluorane, and a heating pad was used to maintain body temperature. A small incision was made on the tumor. A microdialysis probe with 55,000 Da molecular weight cut-off (CMA, Stockholm, Sweden) was inserted into the tumor, via a guided cannula. The length of the microdialysis probe used in this study was 10 mm. Once the probe was in position, the cannula was withdrawn leaving the probe completely embedded in the tumor tissue. Dulbecco's phosphate buffered saline (DPBS; Thermo Fisher Scientific) with ADA inhibitors (Pentostatin and 5-iodotubercindin) was perfused through the probe at a flow rate of 1 μl/min for 30 minutes. Then the samples were collected at a flow rate of 0.5 μl/min for 60 minutes. Microdialysis perfusates were analyzed by Liquid chromatography-mass spectrometry (LC/MS) at MicroConstants (9050 Camino Santa Fe, San Diego, Calif. 92121).

[5] = In vivo pharmacokinetics of PEGylated rHuADA2 combination variants (Example 14); conditions: BALB/c mice, 3 mg/kg intravenous
Source text: Twenty-seven (27) male BALB/c mice were divided into three (3) dosing groups, and were further divided into three (3) groups each for sampling of blood at different time points. Thus, the mice were randomized into nine (9) groups total. Mice were weighed prior to the start of the study, and randomized into the 9 groups based upon their body weights. In each sampling group, three groups of (3) mice were used for dosing each test article to prevent oversampling of the blood from the animals. For measurement of baseline ADA2 levels, a blood sample was obtained from 12 randomly chosen mice and plasma was prepared using the anti-coagulant potassium (K3) ethylene diamine tetraacetic acid (K3-EDTA). All blood was collected by submandibular venipuncture.
PEGylated ADA2 variants were prepared using the PEGylation method as described in Example 8.A, with minor modifications. Briefly, all ADA2 variants at 10 mg/mL were PEGylated with linear PEG-20K (JenKem Technology, Plano, Tex.; Cat. No. M-SCM-20K) at 1:15 molar ratio and incubated first at 37° for 30 min, then at 4° C. for 16 hours.
Approximately 200 μL of whole blood was collected at designated sampling time points from appropriate groups of mice as indicated below in Table 38 and kept on ice until plasma preparation. The initial two (2) blood samples were collected by submandibular venipuncture. The final sample was collected from a terminal bleed. Plasma was prepared by centrifuging the blood (500×g for 5 min at 4° C.), transferring the plasma to a fresh tube and immediately freezing at −80° C. until the adenosine deaminase activity assay. Adenosine deaminase activity was determined as described in Example 4.
Non-compartmental analysis (NCA) was conducted using the Phoenix WinNonlin version 6.3 (Pharsight Corp, St. Louis, Mo. 63101). The half-life, or time taken for the activity of ADA2 proteins to be reduced by half, was calculated. Also, total exposure was measured by calculating the Area Under the Concentration-time Curve (AUC). The AUC and half-life values were obtained from the unweighted average from each test article group. The following options in the Phoenix WinNonlin program were used for data analysis: (i) linear trapezoidal/linear interpolation option for AUC; (ii) best-fit slope selection option for terminal slope; and (iii) uniform weighting of the data.

[6] = vs non-PEGylated WT rHuADA2 of Example 9

B1: ADA2: wild-type human adenosine deaminase 2, mature form SEQ ID NO:5, homodimer (protein, listed as Homo sapiens)
chain: IDETRAHLLLKEKMMRLGGRLVLNTKEELANERLMTLKIAEMKEAMRTLIFPPSMHFFQAKHLIERSQVFNILRMMPKGAALHLHDIGIVTMDWLVRNVTYRPHCHICFTPRGIMQFRFAHPTPRPSEKCSKWILLEDYRKRVQNVTEFDDSLLRNFTLVTQHPEVIYTNQNVVWSKFETIFFTISGLIHYAPVFRDYVFRSMQEFYEDNVLYMEIRARLLPVYELSGEHHDEEWSVKTYQEVAQKFVETHPEFIGIKIIYSDHRSKDVAVIAESIRMAMGLRIKFPTVVAGFDLVGHEDTGHSLHDYKEALMIPAKDGVKLPYFFHAGETDWQGTSIDRNILDALMLNTTRIGHGFALSKHPAVRTYSWKKDIPIEVCPISNQVLKLVSDLRNHPVATLMATGHPMVISSDDPAMFGAKGLSYDFYEVFMGIGGMKADLRTLKQLAMNSIKYSTLLESEKNTFMEIWKKRWDKFIADVATK
modifications: ADA2 mature protein
activity retained in PBS/BSA control [1]: no change in activity
activity retained after treatment with plasma ([1]; mouse plasma): about 65%
stability at higher temperature [2]: substantially more stable at higher temperature compared to ADA1
reversal of adenosine-mediated immunosuppression [3]: reverse the adenosine-dependent immunosuppression; also recorded: reversed

B2: K374D: ADA2 variant SEQ ID NO:20 (protein)
chain: B1 chain with K371D
modifications: human ADA2 K371D, mature numbering
Adenosine concentration in ECM, Mean ([4]; 24 hours after 0.03 mg/kg): 19.54 µM
Adenosine concentration in ECM, individual tumors ([4]; 24 hours after 0.03 mg/kg): 49.02 µM and 12.72 µM and 29.64 µM and 13.58 µM and 12.54 µM and 7.48 µM and 2.04 µM and 29.30 µM
adenosine concentration in tumor ECM ([4]; 24 hours post treatment): 19.5 µM
Adenosine concentration in ECM, Mean ([4]; 48 hours after 0.03 mg/kg): 11.06 µM
Adenosine concentration in ECM, individual tumors ([4]; 48 hours after 0.03 mg/kg): 23.13 µM and 0.07 µM and 6.47 µM and 2.77 µM and 20.92 µM and 1.64 µM and 27.54 µM and 5.95 µM
adenosine concentration in tumor ECM ([4]; 48 hours post treatment): 11 µM

B3: PEG-K374D: rHuADA2-K374D (SEQ ID NO:20) PEGylated on surface exposed lysines with linear PEG-20K (conjugate)
chain: B1 chain with K371D
modifications: linear PEG-20K on surface lysines; human ADA2 K371D, mature numbering
AUC (total exposure) ([5]; plasma ADA activity): 4,662 (U * h)/mL
Half-life slow (t1/2) ([5]; plasma ADA activity): 2,256 min
Percent increase in AUC compared to WT ADA2 [5, 6]: 14,177%
Percent increase in t1/2 compared to WT ADA2 [5, 6]: 3,269%
